Test: yeast display, Sf9 membrane polyspecificity reagent, FACS + sequencing; frameworks hold sequencing errors
Procedure, shortened: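 Using colony PCR, genes from sorted yeast display clones were amplified, then sequenced on MiSeq at 2 × 250 and filtered by CDR length. The clones had been stained with 10% biotinylated, detergent-solubilized Sf9 membrane reagent for 1 hour at 4 °C and sorted by FACS into low and high (top ~1%) gates on anti-HA and streptavidin fluorescence. Polyreactivity labels come from the gate of origin.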

Row | Sequence | polyreactivity (PSR sort gate)
1 | QVQLVESGGGLVQAGGSLRLSCAASGSIFRYYVMGWYRQAPGKERELVASISYSVGRTYYADSVKGRFTISRDNAKNTVYLQMNSLKPEVTAVYYCAADRYWPYYSAYYTSYRMDYWGKGTQVTVSS | high polyreactivity
2 | QVQLVESGGGLVQAGGSLRLSCAASGSIFRYYVTGWYRQAPGKERELVATISSSGGRTYYADSVKGRFTISRDNAKNTVYLQMNSLKPEDTAVYYCNARTSPYSGYSGRYYWGQGTQVTVSS | high polyreactivity
3 | QVQLVESGGGLVQAGGSLRLSCAASGSIFSANAMGWYRQAPGKERELLAAISSSGNTNYADSVKGRFTISRDNAKNTVYLQMNSLKPEDTAVYYCAVELKQVTPGLGYITLDYWGQGTQVTVSS | low polyreactivity
4 | QVQLVESGGGLVQAGGSLRLSCAASGSIFSAYAMGWYRQAPGKEREIVASITWSGGSTYYADSVKGRFTISRDNAKNTVYLQMNSLKPEDTAVYYCAAVYVTWYNNYEYWGQGTQVTVSS | high polyreactivity
5 | QVQLVESGGGLVQAGGSLRLSCAASGSIFSAYVMGWYRQAPGKERELVAAITRSGGSTYYADSVKGRFTISRDNAKHTVYLQMNSLKPEDTAVYYCAAKSIIRPYAPRRDDMDYWGQGTQVTVSS | low polyreactivity
6 | QVQLVESGGGLVQAGGSLRLSCAASGSIFSDYAMGWYRQAPGKERELVAAITQSGGSTYADSVKGRFTISRDNAKNTVYLQMNSLKPEDTAVYYCAADEVPGFGYPPYPWFDYWGQGTQVTVSS | low polyreactivity
7 | QVQLVESGGGLVQAGGSLRLSCAASGSIFSDYGMGWYRQAPGKERELVAGISWNGTSTYYADSVKGRFTISRDNAKNTVYLQMNSLKPEDTAVYYCAATFEGGISDLLDLDYWGQGTQVTVSS | low polyreactivity
8 | QVQLVESGGGLVQAGGSLRLSCAASGSIFSENTMGWYRQAPGTKREWVADITSGGSTNYADSVKGRFTISRDNAKNTVYLQMNSLKPEDTAVYYCAVPGRLYAHPQGYDYWGQGTQVTVSS | low polyreactivity
9 | QVQLVESGGGLVQAGGSLRLSCAASGSIFSFYAMGWYRQAPGKERELVAAIRYSRGSTYYADSVKGRFTISRDNAKNTVYLQMNSLKPEDTAVYFCAARGGSRRFQSQAYSLPRYDYWGQGTQVTVSS | high polyreactivity
10 | QVQLVESGGGLVQAGGSLRLSCAASGSIFSFYAMGWYRQAPGKERELVADISLTTDSTYADSVKGRFTISRDNAKNTVYLQMNSLKPEDTAVYYCAADGSNWEYDYWGQGTQVTVSS | low polyreactivity
11 | QVQLVESGGGLVQAGGSLRLSCAASGSIFSGNAMGWYRPAPGKERELVAAISSNGGRTYYADSVKGRFTISRDNAKNTVYLQMNSLKPEDTAVYYCAADYGKRRYGYYYWGQGTQVTVSS | high polyreactivity
12 | QVQLVESGGGLVQAGGSLRLSCAASGSIFSGNAMGWYRQAPGKVRELVAAISRSGGSTYYADSVKGRFTISRDNAKNTVYLQMNSLKPEDTAVYYCAAYRTHGPPRAIRFDYWGQGTQVTVSS | high polyreactivity
13 | QVQLVESGGGLVQAGGSLRLSCAASGSIFSGWYTMGWYRQAPGKERELVASISISTTDTYYADSVKGRFTISRDNAKNTVYLQMNSLKPEDTAVYYCADEVTSFSFGGDATEYYWGQGTQVTVSS | low polyreactivity
14 | QVQLVESGGGLVQAGGSLRLSCAASGSIFSGYAMGWYRQAPGKERELVAAISTSSVRTYYADSVKGRFTISRDNAKNTVYLQMNSLKPEDTAVYYCAARDGGSYTPMYYWGHGTQVTVSS | high polyreactivity
15 | QVQLVESGGGLVQAGGSLRLSCAASGSIFSGYAMGWYRQAPGKERELVAAITRSGGRTYYADSVKGRFTISRDNAKNTVYLQMNSLKPEDTAVYYCATLPRYYGYWGQGTQVTVSS | high polyreactivity
16 | QVQLVESGGGLVQAGGSLRLSCAASGSIFSGYAMGWYRQAPGKERELVAAITSGGSTDYADSVKGRFTISRDNAKNSVYLQMNSLKPEDTAVYYCAAEGGYSSYGYDYWGQGTQVTVSS | low polyreactivity
17 | QVQLVESGGGLVQAGGSLRLSCAASGSIFSGYAMGWYRQAPGKERELVAALTRSGGRTYYADSVKGRFTISRDNAKNTVYLQMNSLKPEDTSVYYCATLPRYYGYWGQGTQVTVSS | high polyreactivity
18 | QVQLVESGGGLVQAGGSLRLSCAASGSIFSGYTMGWYRQAPGKERELVAGISYRGGSTYYADSVKGRFTISRDNAKNTVYLQMNSLKPEDTAVYYCAALYYRRGSLNYEYWGQGTQVTVSS | high polyreactivity
19 | QVQLVESGGGLVQAGGSLRLSCAASGSIFSGYVMGWSRQAPGKERELVAAISGSGGSTYYADSVKGRFTISRDNAKNTVYLQMNSLNPEDTAVYYCNKGLSRSYWWVDYWGQGTQVTVSS | low polyreactivity
20 | QVQLVESGGGLVQAGGSLRLSCAASGSIFSGYVMGWYRQAPGKERELVAAISGSGGSTYYADSVKGRFTISRDNAKNTVYLQMNSLKPEDTAVYYCNKGLSRSYWWVDYWGQGTQVTVSS | low polyreactivity
21 | QVQLVESGGGLVQAGGSLRLSCAASGSIFSHNAMGWYRQAPGKERELVAAITGIVGSTYYADSVKGRFTISRDTAKNTVYLQMNSLNPEDTAVYYCAADNPVPEGSRTFEYWGQGTQVTVSS | low polyreactivity
22 | QVQLVESGGGLVQAGGSLRLSCAASGSIFSINTMGWYRQAPGKERELVAAISRTGGSTYYADSVKGRFTISRDNAKNTVYLQMNSLKPEDTAVYYCAARKYADGRIFYYWGQGTQVTVSS | high polyreactivity

Row | Sequence | polyreactivity (PSR sort gate)
23 | QVQLVESGGGLVQAGGSLRLSCAASGSIFSIYAMGWYRQAPGKERELVAAIDSGTSTTYADSVKGRFTISRDNAKNTVYLQMKSLKPEDTAVYYCAAALYSDVAAVATYGYYWGQGTQVTVSS | low polyreactivity
24 | QVQLVESGGGLVQAGGSLRLSCAASGSIFSKNAIGWYRQAPGKERELVATISRSGGSTYYADSVKGRFTISRDNAKNTVYLQMNSLKPDDSAVYYCNRDTRYYWKRYGYWGQGTQVTVSS | high polyreactivity
25 | QVQLVESGGGLVQAGGSLRLSCAASGSIFSKNAMGWYRQAPGKERELLAAITLNGGSTYYADSVKGRFTNSRDNAKNTVYLQMNSLKPEDTSVFYFAKSDRQWWGYYYQFDYLGQGTQVTVSS | low polyreactivity
26 | QVQLVESGGGLVQAGGSLRLSCAASGSIFSKYAMGWYRQAAGKERELVAGISCSGGSTYYADSVNGRFTISRDNAQITVYLQINSLKPEDTAVYYCAVGIPYRGRQGYYGYYSYDYWGQGTHVTVSS | high polyreactivity
27 | QVQLVESGGGLVQAGGSLRLSCAASGSIFSKYAMGWYRQAPGKERELVAAISWSGTSTYYADSVKGRFTISRDNAKNTVYLQMNSLKPEDTAVYYCAASSPRSLSLLGYWGQGTQVTVSS | low polyreactivity
28 | QVQLVESGGGLVQAGGSLRLSCAASGSIFSLNAMGWYRQAPGKERELVAASGGGSTYYADSVKGRFTISRDNAKNTVYLQMNSLKPEDSAVYYCAARVLTDELDYWGQGTQVTVSS | low polyreactivity
29 | QVQLVESGGGLVQAGGSLRLSCAASGSIFSLYAMGWYRQAPGKERELVAAISQSGDSTFYADSVKGRFTISRDHAKNTVYLQMNSLKPEYTAVSYCAADPRNKAWKWDDYWGQGTQVTVSS | low polyreactivity
30 | QVQLVESGGGLVQAGGSLRLSCAASGSIFSNNAMGWYRQAPGKERELVAAISRSGTNTYYADSVKGRFTISRDNAKNTVYLQMNSLKPEDTAVEYCAARGVYVKYYYWGQGTQVTVSS | high polyreactivity
31 | QVQLVESGGGLVQAGGSLRLSCAASGSIFSNYAMGWYRQAPGKERELVAAISRNGGSTSYADSVKGRFTISRDNAKNTVYLQMNSLKPEDTAVYYCAAVYVTGSYRYGYWGQGTQVTVSS | high polyreactivity
32 | QVQLVESGGGLVQAGGSLRLSCAASGSIFSNYAMGWYRQAPGKERELVAAITLSSGGTYYADSVKGRFTISRDNAKNTVYLQMNSLKPEDTAVYYCAAQYKYFIHRYYYWGQGTQVTVSS | high polyreactivity
33 | QVQLVESGGGLVQAGGSLRLSCAASGSIFSPYAMGWYRQAPGKERELVAAISYGVGNTYYADSVKGRFTISRDNAKNTVYLQMNSLIPEDTAVYYCAAEEYDYVFPHYFTKGYYWGQGTQVTVSS | high polyreactivity
34 | QVQLVESGGGLVQAGGSLRLSCAASGSIFSPYAMGWYRQAPGKERELVAAITWSGGSTYYADSVKGRFTISRDNAKNTVYLQMNSLKPEDTAVYYCAATYYVNAWRYYYWGQGTQVTVSS | high polyreactivity
35 | QVQLVESGGGLVQAGGSLRLSCAASGSIFSQYAMGWYRQAPGKERELVAAIRTGGRTHYADSVKGRFTISRDNAKKTVYLQMNSLKPEDTAVYYCAAQARYYWGTTYEYWGQGTQVTVSS | high polyreactivity
36 | QVQLVESGGGLVQAGGSLRLSCAASGSIFSQYAMGWYRQAPGKERELVAAITSSGGRTYYADSVKGRFTISRDNAKNTVYLQMNSLKPEDTAVYYCAARPYSKRHEYWGQGTQVTVSS | high polyreactivity
37 | QVQLVESGGGLVQAGGSLRLSCAASGSIFSQYVMGWYRQAPGKERELVAAISWSGGHTYYADSVKGRFTISRDNAKNTVYLQMNSLKPEDTAVYYCATVPRKTPGNAELDYWGQGTQVTVSS | high polyreactivity
38 | QVQLVESGGGLVQAGGSLRLSCAASGSIFSQYVMGWYRQAPGKERELVAAISWSGGHTYYADSVKGRFTISRDNAKNTVYLQMNSLKPEDTAVYYCRAFFRRDYWGQGTQVTVSS | high polyreactivity
39 | QVQLVESGGGLVQAGGSLRLSCAASGSIFSRNAMGWYRQAPGKERELVAAITGSGSSTYYADSVKGRFTISRDNAKNTVYLQMNSLKPEDSAVYYCNAARVYLSEWGQGTQVTVSS | high polyreactivity
40 | QVQLVESGGGLVQAGGSLRLSCAASGSIFSRNAMGWYRQAPGKERELVAGISTGGSTNYADSVKGRFTISRDNAKNTVYLQMNSLKPEDTAVYYCAAPLAYEGDDWGQGTQLTVSS | low polyreactivity
41 | QVQLVESGGGLVQAGGSLRLSCAASGSIFSRYAMGWYRQAPGKERELVAAITWSGGSTYYADSVKGRFTISRDNAKNTVYLQMNSLKPEDTAVYYCAAVGYAPYNHRYDYWGQGTQVTVSS | low polyreactivity
42 | QVQLVESGGGLVQAGGSLRLSCAASGSIFSSNAMGWYIQAPGKERELVAAITYSGGSTYYADSVKGRFTISRDNAKNTVYLQMNSLKPEDTAVYYCAADNGNWYDGYSYDYWGQGTQVTVSS | low polyreactivity
43 | QVQLVESGGGLVQAGGSLRLSCAASGSIFSSYAMGWYRPAPGNERELVAAISKSGGSTYYADSVKGRFTISRDNAKNTVYLQMNSLKPEDTAVYYCAARTRQLEYNSWGQGTQVTVSS | high polyreactivity
